# According to publication PMC9694015:
# Legend:
# [1] = biological target: bacterial chalcone isomerase (CHI) from Eubacterium ramulus, His33Ala variant (Eubacterium ramulus) (UniProt V9P0A9); experiment: crystal structure; hanging drop at 293 K, 6.8 mg/mL protein in 50 mM sodium phosphate pH 6.8; reservoir ammonium sulphate (1.8 M for CHI, 1.5 M for CHI_H33A), 0.2 M NaCl, 0.1 M HEPES pH 7.5; crystals soaked 10 min with 2.5 mM (+)-taxifolin; data at 100 K; hexamer seen in the asymmetric unit
# [2] = biological target: bacterial chalcone isomerase (CHI) from Eubacterium ramulus (Eubacterium ramulus) (UniProt V9P0A9); experiment: as above
stoichiometry N [1],stoichiometry N [2],Substance
6,–,"bacterial chalcone isomerase (CHI) from Eubacterium ramulus, His33Ala variant (from UniProt V9P0A9 1-283) (enzyme)"
–,6,bacterial chalcone isomerase (CHI) from Eubacterium ramulus (from UniProt V9P0A9 1-283) (enzyme)
